From the RNAGym collection of RNA variant scans (doi:10.7554/elife.80360) come the findings set out here.

Sequences and labels used below:
B1: Hairpin Ribozyme (parent)
chain: GUCCUCUUUCACGUGCGCGUGAAAGAGAGAAGUGAACCAGAGAAACACACGUUGUGGUAUAUUACCUGGUA

In this data set the parent is B1. As to the kind of experiment: self-cleavage, relative activity (ratio to wild type); higher = more cleavage; co-transcriptional.
On to GUCCUCUUACACGUGCGCGUGAAAGAGAGAAGUGAACCAGAGAAACACACGUUGUGGUAUAUUGCCUGGUA, for which the self-cleavage was found to be 0.284.

As for GUCCUCAUUCACGUGCGCGUGAAAGAGAGAAGUGAACCAGAGAAACACACGUUGUGGUAUAUUGCCUGGUA, the self-cleavage came to 0.525. For GUCCUCUUUCACGUGCGCGUUAAAGAGAGAAGUGAACCAGAGAAACACACGUGGUGGUAUAUUACCUGGUA the value was 0.907. Take GUCCUCUUUCACGUGCGCGUGAAAGAGAGAAGUUAACCAGAGAAACACACGUUGUGGUAUACUACCUGGUA: the self-cleavage was determined as 1.23. For GUCCUCUUUCACGUGCGCGUGAAAGCGAGAAGUGAACCAGAGAAACACACGUUGUGAUAUAUUACCUGGUA the value was 0.141; for GUCCUCUUUCACGUGCGCGCGAAAGAGAGAAGUGAACCAGAGAAACACACGUUGUGGUAUAUUACCUGGGA, 0.909. In the case of GUCCUCUUUCACGUGCGCGUGAAAGCGCGAAGUGAACCAGAGAAACACACGUUGUGGUAUAUUACCUGGUA, the self-cleavage is 0.329. For GUCCUCUUUCACGUGCGCGUGAAGGAGAGAAGUGAACCAGAGAAACACAAGUUGUGGUAUAUUACCUGGUA the value was 0.187; for GUCCUCAUUCACGUGCGCGUGAAAGAGAGAAGUGAACCAGAGAAACACACUUUGUGGUAUAUUACCUGGUA, 0.866. For GUCCUCUUUCACGUGCGCGUGAAAGAGAGAACUGAACGAGAGAAACACACGUUGUGGUAUAUUACCUGGUA, the self-cleavage is 0.0953. For GUCCUCUUUCACGUGCGCGUGAAAGAGAGAAGUGAUCCAGAGAAGCACACGUUGUGGUAUAUUACCUGGUA the value was 0.106; for GUCCUCUUUCACGUGAGCGUGAAAGAGAGAAGUGAACCAGAGAAACACACGUUGUCGUAUAUUACCUGGUA, 0.212. On to GUCCUCUUUCACGUGAGCGUGAAAGAGAGAAGUGAACCAGAGAAACACACGUUGUGGUAUAUGACCUGGUA, for which the self-cleavage was 0.253.

For GUCCUCUUUCACGUUCGCGUGAAAGAGAGAUGUGAACCAGAGAAACACACGUUGUGGUAUAUUACCUGGUA, the self-cleavage was 0.232. For GUCCUCUAUCACGUGCGCGUGAAAGAGAGAAGUGAAUCAGAGAAACACACGUUGUGGUAUAUUACCUGGUA the value was 0.56. In the case of GUCCUCUUUCACGUGCGCGUGAGAGAGAGAAGUGAACCAGAGAAACACACGUUGUGGUCUAUUACCUGGUA, the self-cleavage was found to be 0.0706. For GUCCUCUUUCACGUGCGCGUGAAAGAGAGAAGUGAUCCAGAGAAAGACACGUUGUGGUAUAUUACCUGGUA the value was 0.0439; for GUCCUCUUUCACGUGCGCGUGAAAGAGAGUAGUGAACCAGAGAAACACACGUUGUGGUAUACUACCUGGUA, 0.144. For GUCCUCUUUCACGUGCGCGUGAAAGAGAGAAGUGAACCGGAGAAACACACGUUGUGGCAUAUUACCUGGUA, the self-cleavage amounted to 0.272. For AUCCUCUUUCACGUGCGCGUGAAAGAGAGAAGUGAACCAGAGAAACACACGUUGUGGUAUAUUAUCUGGUA the value was 0.0307. For GUCCUCGUUCACUUGCGCGUGAAAGAGAGAAGUGAACCAGAGAAACACACGUUGUGGUAUAUUACCUGGUA the value was 0.632.

Regarding GUCCUCUUUCACGUGCGCGUGAAAGAGAGAAGUGAACCAGAGAAACACACGUUGAGGUAUAUUACCUGAUA, the self-cleavage worked out at 0.172. In the case of GUCCUCUUUCACGUGCGCGUGAAAGAGAGAAGUGAACCAGCGAAACACACGUUGAGGUAUAUUACCUGGUA, the self-cleavage came to 0.405. For GUCCUCUUUCACGUGCGCGUGGAAGAGAGAAGUGAACCACAGAAACACACGUUGUGGUAUAUUACCUGGUA the value was 0.146; for GUCCUCUUUCACGUGCGCGUGAAAGAGAGAAGUGAACCAGAGUAACACACGUUGUGGUAUAUUACCUGUUA, 0.174; for GUCAUCUUUCACGUGCGCGUGAAAGAGAGAAGUGAACCAGAGAAACACACGUUGUGGUCUAUUACCUGGUA, 0.191.

GUCCUCUUUCACGUGCGCGUGAAAGAGAGAAGUGAACGAGAGAAACACAAGUUGUGGUAUAUUACCUGGUA: the self-cleavage is 0.162. For GUCCUCUUUCACGUGAGCGUGAAAGAGAGAAGUGAACCAGAGGAACACACGUUGUGGUAUAUUACCUGGUA the value was 0.118; for GUCCUCUUUCACGUGAGCGUGAAAGAGAGAAGUGAACCAGAGCAACACACGUUGUGGUAUAUUACCUGGUA, 0.116.

Regarding GUCCUCUUUCACGUGCGCGUGAAAGAGAGAAGUGAACUAGAGAAACACACGUUGUGAUAUAUUACCUGGUA, the self-cleavage came to 0.229.

For the variant GGCCUCUUUCACGUGCGCGUGAAAGAGAGAAGUGAACCAUAGAAACACACGUUGUGGUAUAUUACCUGGUA, the self-cleavage came out at 0.072.

With GUCCUCUUUCACGGGCGCGUGAAAGAGAGAAGUGAACCAGAGAAACACACGUUGUGGUAUAUUACCUAGUA, the self-cleavage turned out to be 0.32. As to GUCCUCUUUCACGUGCGCGUGAAACAGAGAAGUGAACCAGAGAAACACACGUUGUGGUAUAUUCCCUGGUA, the self-cleavage came out at 0.0865.

GUCCUCUUUGACGUGCGCGUGAAAGAGAGAAGUGAACCAGAGAAACACACGUUGUGGUAUAUUACAUGGUA: the self-cleavage came out at 0.0906. For GUCCUCUUUCACGUGCGCGUGAAAGAGAGAAGUGAACCAGAGAAACACACGUUCUGGUAUAUUACCUGAUA the value was 0.0998; for GUCCUCUUUCACGUGCGCGUGAAAGAGAGAAGUGAACCAGAGAAACACAUGUUUUGGUAUAUUACCUGGUA, 0.905; for GUCCUCUUUCACGUGCGCGUGAAAGAUAGAAGUGAACCAGAGAAACACACGUUGUGGUAUAUUACCUGAUA, 0.0822.

GUCCUCUUUCACGUGCGCGUGAAAGAGAGAAGUGAACCAGAGAAACACAGGUUGUGGUAUAUUACCUGAUA: the self-cleavage stood at 0.152.
